According to patent US20220251186A1 (TAVOTEK BIOTHERAPEUTICS HONG KONG, published 2022):
One block for each binder: values may come before it.

Columns and labels:
[1] = target: T1, recombinant human TSLP (R&D Systems) (human, UniProt Q969D9 29-159); assay: ELISA, plate coated with 1 µg/mL recombinant human TSLP, antibody titrated, HRP-conjugated secondary antibody, OD 450 nm
T1 construct: also called thymic stromal lymphopoietin

[2] = target: T2, Cynomolgus monkey TSLP (Cynomolgus monkey, UniProt A0A7N9CAT7 29-159); assay: ELISA, plate coated with cynomolgus monkey TSLP, antibody titrated, OD 450 nm
T2 construct: also called cynomolgus TSLP

[3] = target: T1, recombinant human TSLP (R&D Systems); assay: ELISA, 1 µg/mL recombinant human TSLP coated, HRP anti-mouse detection
[4] = target: T1, recombinant human TSLP (R&D Systems); assay: cell-based or functional assay
[5] = target: T3, mouse TSLP (R&D Systems) (mouse, UniProt Q9JIE6 20-140); assay: ELISA, plate coated with mouse TSLP, antibody titrated, HRP-conjugated anti-mouse secondary antibody, OD 450 nm
T3 sequence (looked up): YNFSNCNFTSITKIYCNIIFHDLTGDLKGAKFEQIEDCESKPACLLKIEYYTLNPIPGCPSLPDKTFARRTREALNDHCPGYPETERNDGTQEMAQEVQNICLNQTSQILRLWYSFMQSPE

[6] = target: T4, recombinant mouse FcRn (R&D Systems) (mouse, UniProt Q61559 22-297; P01887 21-119, limits assumed); assay: ELISA at pH 6.0, 1 µg/mL recombinant mouse FcRn coated, HRP anti-human detection
T4 sequence (looked up) 1: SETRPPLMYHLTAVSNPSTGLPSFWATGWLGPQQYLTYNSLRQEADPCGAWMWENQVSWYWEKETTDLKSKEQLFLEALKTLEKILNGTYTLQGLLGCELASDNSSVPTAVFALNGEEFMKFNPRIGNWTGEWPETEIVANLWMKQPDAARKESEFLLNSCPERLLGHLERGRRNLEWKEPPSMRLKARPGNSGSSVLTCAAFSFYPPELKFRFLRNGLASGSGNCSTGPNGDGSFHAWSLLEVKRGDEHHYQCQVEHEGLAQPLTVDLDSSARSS
T4 sequence (looked up) 2: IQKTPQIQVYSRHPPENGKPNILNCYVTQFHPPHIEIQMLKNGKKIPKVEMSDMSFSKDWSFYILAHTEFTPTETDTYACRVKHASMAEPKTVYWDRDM
Experimental: 1 μg/mL recombinant mouse FcRn (R&D Systems) were coated on ELISA plate.

B1: TAVO6264 (antibody, human IgG2, kappa)
heavy: QVQLVQSGAEVKKPGSSVKVSCKASGYTFSSYWVNWVRQAPGQGLEWIGQIYPGDGDTDYAQKFQGRATLTADKSTSTAYMELSSLRSEDTAVYFCARGTYYNNYYGTDYWGQGTTVTVSSASTKGPSVFPLAPCSRSTSESTAALGCLVKDYFPEPVTVSWNSGALTSGVHTFPAVLQSSGLYSLSSVVTVPSSNFGTQTYTCNVDHKPSNTKVDKTVERKCCVECPPCPAPPVAGPSVFLFPPKPKDTLMISRTPEVTCVVVDVSHEDPEVQFNWYVDGVEVHNAKTKPREEQFNSTFRVVSVLTVVHQDWLNGKEYKCKVSNKGLPAPIEKTISKTKGQPREPQVYTLPPSREEMTKNQVSLTCLVKGFYPSDIAVEWESNGQPENNYKTTPPMLDSDGSFFLYSKLTVDKSRWQQGNVFSCSVMHEALHNHYTQKSLSLSPGK
light: DIQLTQSPSFLSASVGDRVTITCSVSSSISSSNLHWYQQKPGKAPKPWIYGTSNLASGVPSRFSGSGSGTEYTLTISSLQPEDAATYYCQQWSSYPLTFGQGTKLEIKRTVAAPSVFIFPPSDEQLKSGTASVVCLLNNFYPREAKVQWKVDNALQSGNSQESVTEQDSKDSTYSLSSTLTLSKADYEKHKVYACEVTHQGLSSPVTKSFNRGEC
notes: Human IgG2 Fc; also called humanized TAVO202 antibody 202H2/202L3 with human IgG2 Fc
- EC50 (read off the curve) [1]: ~2 ng/mL

B3: TAVO6265 (antibody, human IgG2, kappa)
heavy: QVQLVQSGAEVKKPGSSVKVSCKASGYTFSSYWVNWVRQAPGQGLEWIGQIYPGDGDTDYAQKFQGRATLTADKSTSTAYMELSSLRSEDTAVYFCARGTYYNNYYGTDYWGQGTTVTVSSASTKGPSVFPLAPCSRSTSESTAALGCLVKDYFPEPVTVSWNSGALTSGVHTFPAVLQSSGLYSLSSVVTVPSSNFGTQTYTCNVDHKPSNTKVDKTVERKCCVECPPCPAPPVAGPSVFLFPPKPKDTLMISRTPEVTCVVVDVSHEDPEVQFNWYVDGVEVHNAKTKPREEQFNSTFRVVSVLTVVHQDWLNGKEYKCKVSNKGLPAPIEKTISKTKGQPREPQVYTLPPSREEMTKNQVSLTCLVKGFYPSDIAVEWESNGQPENNYKTTPPMLDSDGSFFLYSKLTVDKSRWQQGNVFSCSVMHEALHNHYTQKSLSLSPGK
light: EIVLTQSPDFQSVTPKEKVTITCSVSSSISSSNLHWYQQKPDQSPKPWIYGTSNLASGVPSRFSGSGSGTDYTLTINSLEAEDAATYYCQQWSSYPLTFGQGTKLEIKRTVAAPSVFIFPPSDEQLKSGTASVVCLLNNFYPREAKVQWKVDNALQSGNSQESVTEQDSKDSTYSLSSTLTLSKADYEKHKVYACEVTHQGLSSPVTKSFNRGEC
notes: Human IgG2 Fc; also called humanized TAVO202 antibody 202H2/202L4 with human IgG2 Fc
- EC50 (read off the curve) [1]: ~2 ng/mL

B4: mouse monoclonal anti-human TSLP antibody TAVO202 (antibody, V domains shown)
VH: QVQLQQSGAELVRPGSSVKISCKASGYTFSSYWVNWVKQRPGQGLEWIGQIYPGDGDTDYNGKFKGKATLTADKSSSTAYMQLSSLTSEDSAVYFCARGTYYNNYYGTDYWGQGTSVTVSS
VL: EIVLTQSPALMAASPGEKVTITCSVSSSISSSNLHWYQQKSETSPKPWIYGTSNLASGVPVRFSGSGSGTSYSLTISSMEAEDAATYYCQQWSSYPLTFGGGTKLEIK
notes: Mouse monoclonal antibody from hybridoma screening; also called mouse anti-TSLP antibody TAVO202
- EC50 [3]: 2.4 ng/mL
- IC50, neutralization of TSLP-driven STAT5 luciferase reporter gene expression (10 ng/mL human TSLP) [4]: 20 ng/mL
- IC50, neutralization of TSLP-driven proliferation of transfected BAF3 cells (0.5 ng/mL human TSLP) [4]: 6.6 ng/mL
- binding result [5]: no binding (tested: about 5 µg/mL)

B5: TAVO9765 (antibody, human IgG1, kappa, L234A L235A)
heavy: QVQLVQSGAEVKKPGSSVKVSCKASGYTFSSYWVNWVRQAPGQGLEWIGQIYPGDGDTDYAQKFQGRATLTADKSTSTAYMELSSLRSEDTAVYFCARGTYYNNYYGTDYWGQGTTVTVSSASTKGPSVFPLAPSSKSTSGGTAALGCLVKDYFPEPVTVSWNSGALTSGVHTFPAVLQSSGLYSLSSVVTVPSSSLGTQTYICNVNHKPSNTKVDKKVEPKSCDKTHTCPPCPAPEAAGGPSVFLFPPKPKDTLMISRTPEVTCVVVDVSHEDPEVKFNWYVDGVEVHNAKTKPREEQYNSTYRVVSVLTVLHQDWLNGKEYKCKVSNKALPAPIEKTISKAKGQPREPQVYTLPPSREEMTKNQVSLTCLVKGFYPSDIAVEWESNGQPENNYKTTPPVLDSDGSFFLYSKLTVDKSRWQQGNVFSCSVLHEALHSHYTQKSLSLSPGK
light: EIVLTQSPDFQSVTPKEKVTITCSVSSSISSSNLHWYQQKPDQSPKPWIYGTSNLASGVPSRFSGSGSGTDYTLTINSLEAEDAATYYCQQWSSYPLTFGQGTKLEIKRTVAAPSVFIFPPSDEQLKSGTASVVCLLNNFYPREAKVQWKVDNALQSGNSQESVTEQDSKDSTYSLSSTLTLSKADYEKHKVYACEVTHQGLSSPVTKSFNRGEC
notes: also called humanized TAVO202 antibody 202H2/202L4 with human IgG1 Fc (L234A, L235A, M428L, N434S)
- fold better potency than TAVO7265 [6]: ~10 fold

Second part, the binder after the results:

- binding result [2]: no binding (tested: 1 µg/mL)
B2: TAVO7264 (antibody, human IgG1, kappa)
heavy: QVQLVQSGAEVKKPGSSVKVSCKASGYTFSSYWVNWVRQAPGQGLEWIGQIYPGDGDTDYAQKFQGRATLTADKSTSTAYMELSSLRSEDTAVYFCARGTYYNNYYGTDYWGQGTTVTVSSASTKGPSVFPLAPSSKSTSGGTAALGCLVKDYFPEPVTVSWNSGALTSGVHTFPAVLQSSGLYSLSSVVTVPSSSLGTQTYICNVNHKPSNTKVDKKVEPKSCDKTHTCPPCPAPEFEGGPSVFLFPPKPKDTLMISRTPEVTCVVVAVSHEDPEVKFNWYVDGVEVHNAKTKPREEQYNSTYRVVSVLTVLHQDWLNGKEYKCKVSNKALPAPIEKTISKAKGQPREPQVYTLPPSREEMTKNQVSLTCLVKGFYPSDIAVEWESNGQPENNYKTTPPVLDSDGSFLLYSKLTVDKSRWQQGNVFSCSVMHEALHNHYTQKSLSLSPGK
light: DIQLTQSPSFLSASVGDRVTITCSVSSSISSSNLHWYQQKPGKAPKPWIYGTSNLASGVPSRFSGSGSGTEYTLTISSLQPEDAATYYCQQWSSYPLTFGQGTKLEIKRTVAAPSVFIFPPSDEQLKSGTASVVCLLNNFYPREAKVQWKVDNALQSGNSQESVTEQDSKDSTYSLSSTLTLSKADYEKHKVYACEVTHQGLSSPVTKSFNRGEC
notes: also called humanized TAVO202 antibody 202H2/202L3 with human IgG1 Fc (L234F, L235E, D265A, F405L)

- binding result [2]: no binding (tested: 1 µg/mL)
B6: TAVO7265 (antibody, human IgG1, kappa)
heavy: QVQLVQSGAEVKKPGSSVKVSCKASGYTFSSYWVNWVRQAPGQGLEWIGQIYPGDGDTDYAQKFQGRATLTADKSTSTAYMELSSLRSEDTAVYFCARGTYYNNYYGTDYWGQGTTVTVSSASTKGPSVFPLAPSSKSTSGGTAALGCLVKDYFPEPVTVSWNSGALTSGVHTFPAVLQSSGLYSLSSVVTVPSSSLGTQTYICNVNHKPSNTKVDKKVEPKSCDKTHTCPPCPAPEFEGGPSVFLFPPKPKDTLMISRTPEVTCVVVAVSHEDPEVKFNWYVDGVEVHNAKTKPREEQYNSTYRVVSVLTVLHQDWLNGKEYKCKVSNKALPAPIEKTISKAKGQPREPQVYTLPPSREEMTKNQVSLTCLVKGFYPSDIAVEWESNGQPENNYKTTPPVLDSDGSFLLYSKLTVDKSRWQQGNVFSCSVMHEALHNHYTQKSLSLSPGK
light: EIVLTQSPDFQSVTPKEKVTITCSVSSSISSSNLHWYQQKPDQSPKPWIYGTSNLASGVPSRFSGSGSGTDYTLTINSLEAEDAATYYCQQWSSYPLTFGQGTKLEIKRTVAAPSVFIFPPSDEQLKSGTASVVCLLNNFYPREAKVQWKVDNALQSGNSQESVTEQDSKDSTYSLSSTLTLSKADYEKHKVYACEVTHQGLSSPVTKSFNRGEC
notes: also called humanized TAVO202 antibody 202H2/202L4 with human IgG1 Fc (L234F, L235E, D265A, F405L)
